What was measured:
Assay in all cases: flow cytometry on cells
[1] = target: SARS-CoV-2 S glycoprotein R457A, full-length, cell surface-expressed (SARS-CoV-2) (UniProt P0DTC2)
[2] = target: SARS-CoV-2 S glycoprotein T415A, full-length, cell surface-expressed (SARS-CoV-2) (UniProt P0DTC2)
[3] = target: SARS-CoV-2 S glycoprotein Y421A, full-length, cell surface-expressed (SARS-CoV-2) (UniProt P0DTC2)
[4] = target: SARS-CoV-2 S glycoprotein Y473A, full-length, cell surface-expressed (SARS-CoV-2) (UniProt P0DTC2)

Measured: percent reduction in binding (MFI relative to wild type)

P2C-1F11 monoclonal antibody
> 50%: all assays above

Source: publication PMC7801515
